Laboratory results published in the supplement of paper PMC9112550, “Optimization of the antimicrobial peptide Bac7 by deep mutational scanning” (BMC Biology, 2022).

What follows are sequences tested on Escherichia coli TOP10 (assay: shrunken log2 fold change of peptide-encoding DNA abundance (4.5 h post-induction vs induction); higher = less antimicrobial activity (less host growth inhibition)). Settings: time post-induction: 4.5 h; library: site-saturation at positions 5, 18, 19, 20.
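Also: peptides expressed intracellularly from a pBAD plasmid library in pooled LB shake-flask culture, induced with 0.3% L-arabinose, DNA abundance read by NGS, three biological replicates, DESeq2 with apeglm shrinkage.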

First: RRIRARPPRLPRPRPRPMFPPRP
Second: RRIRDRPPRLPRPRPRPRARPRP
The “shrunken log2 fold change” value of the first is lower: -0.147 for the first, 0.601 for the second.

RRIRFRPPRLPRPRPRPARYPRP and RRIRYRPPRLPRPRPRPSLAPRP are within 0.2 log units of each other in “shrunken log2 fold change” value: 0.153 for the first, 0.0395 for the second.

RRIRHRPPRLPRPRPRPDHMPRP and RRIRWRPPRLPRPRPRPMYDPRP are within 0.2 log units of each other in “shrunken log2 fold change” value: 0.00372 for the first, -0.158 for the second.

RRIRPRPPRLPRPRPRPLFAPRP and RRIRFRPPRLPRPRPRPADPPRP are within 0.2 log units of each other in “shrunken log2 fold change” value: 0.206 for the first, 0.109 for the second.

Compared with RRIRSRPPRLPRPRPRPVFWPRP, RRIRTRPPRLPRPRPRPKACPRP is lower in “shrunken log2 fold change” value: 0.365 for the first, 0.0653 for the second.

RRIRHRPPRLPRPRPRPSRDPRP and RRIRRRPPRLPRPRPRPEKPPRP are within 0.2 log units of each other in “shrunken log2 fold change” value: 0.234 for the first, 0.376 for the second.

RRIRDRPPRLPRPRPRPNQFPRP and RRIRKRPPRLPRPRPRPYLYPRP are within 0.2 log units of each other in “shrunken log2 fold change” value: -0.416 for the first, -0.404 for the second.

RRIRQRPPRLPRPRPRPNIFPRP and RRIRDRPPRLPRPRPRPWNPPRP are within 0.2 log units of each other in “shrunken log2 fold change” value: -0.496 for the first, -0.586 for the second.

First: RRIRSRPPRLPRPRPRPTFMPRP
Second: RRIRARPPRLPRPRPRPTYPPRP
The “shrunken log2 fold change” value of the first is lower: -0.335 for the first, -0.0587 for the second.

Going from RRIRRRPPRLPRPRPRPIGSPRP to RRIRWRPPRLPRPRPRPYWWPRP, the “shrunken log2 fold change” value falls from 0.318 to -0.0939.

Going from RRIRWRPPRLPRPRPRPVEMPRP to RRIRGRPPRLPRPRPRPYLSPRP, the “shrunken log2 fold change” value falls from 0.206 to -0.0512.

Going from RRIRNRPPRLPRPRPRPGNDPRP to RRIRYRPPRLPRPRPRPMCEPRP, the “shrunken log2 fold change” value falls from -0.0364 to -0.283.

First: RRIRCRPPRLPRPRPRPELWPRP
Second: RRIRRRPPRLPRPRPRPLWSPRP
The “shrunken log2 fold change” value of the first is higher: 0.732 for the first, 0.136 for the second.

Compared with RRIRDRPPRLPRPRPRPLDCPRP, RRIRQRPPRLPRPRPRPFAHPRP is lower in “shrunken log2 fold change” value: 0.118 for the first, -0.0959 for the second.

RRIRLRPPRLPRPRPRPQFCPRP and RRIRVRPPRLPRPRPRPLNCPRP are within 0.2 log units of each other in “shrunken log2 fold change” value: -0.137 for the first, -0.257 for the second.

First: RRIRWRPPRLPRPRPRPSTKPRP
Second: RRIRTRPPRLPRPRPRPITWPRP
The “shrunken log2 fold change” value of the first is higher: -0.0244 for the first, -0.252 for the second.

Compared with RRIRNRPPRLPRPRPRPNANPRP, RRIRDRPPRLPRPRPRPCAMPRP is higher in “shrunken log2 fold change” value: -0.199 for the first, 0.259 for the second.

RRIRIRPPRLPRPRPRPNQQPRP and RRIRQRPPRLPRPRPRPNCVPRP are within 0.2 log units of each other in “shrunken log2 fold change” value: 0.0352 for the first, -0.0688 for the second.

Compared with RRIRQRPPRLPRPRPRPSHFPRP, RRIRERPPRLPRPRPRPPNKPRP is lower in “shrunken log2 fold change” value: 0.0685 for the first, -0.243 for the second.

First: RRIRHRPPRLPRPRPRPKYKPRP
Second: RRIRVRPPRLPRPRPRPNAVPRP
The “shrunken log2 fold change” value of the first is lower: -0.679 for the first, -0.223 for the second.

First: RRIRPRPPRLPRPRPRPLCKPRP
Second: RRIRNRPPRLPRPRPRPFDFPRP
The “shrunken log2 fold change” value of the first is higher: 0.041 for the first, -0.161 for the second.

Going from RRIRLRPPRLPRPRPRPWQNPRP to RRIRHRPPRLPRPRPRPFNEPRP, the “shrunken log2 fold change” value falls from -0.195 to -0.64.

Going from RRIRFRPPRLPRPRPRPFHAPRP to RRIRCRPPRLPRPRPRPFFFPRP, the “shrunken log2 fold change” value rises from -0.393 to 0.101.

RRIRTRPPRLPRPRPRPRQVPRP and RRIRHRPPRLPRPRPRPQHVPRP are within 0.2 log units of each other in “shrunken log2 fold change” value: -0.0471 for the first, -0.048 for the second.

First: RRIRKRPPRLPRPRPRPKIFPRP
Second: RRIRRRPPRLPRPRPRPMNHPRP
The “shrunken log2 fold change” value of the first is higher: 0.0692 for the first, -0.281 for the second.

First: RRIRYRPPRLPRPRPRPNTNPRP
Second: RRIRERPPRLPRPRPRPLWDPRP
The “shrunken log2 fold change” value of the first is lower: -1.09 for the first, 0.108 for the second.

RRIRYRPPRLPRPRPRPLQFPRP and RRIRIRPPRLPRPRPRPGNIPRP are within 0.2 log units of each other in “shrunken log2 fold change” value: -0.537 for the first, -0.479 for the second.

RRIRERPPRLPRPRPRPVSEPRP and RRIRDRPPRLPRPRPRPMKSPRP are within 0.2 log units of each other in “shrunken log2 fold change” value: 0.164 for the first, 0.0815 for the second.

RRIRERPPRLPRPRPRPFGDPRP and RRIRDRPPRLPRPRPRPPISPRP are within 0.2 log units of each other in “shrunken log2 fold change” value: -0.0107 for the first, 0.024 for the second.

RRIRCRPPRLPRPRPRPLDTPRP and RRIRRRPPRLPRPRPRPHTPPRP are within 0.2 log units of each other in “shrunken log2 fold change” value: -0.153 for the first, -0.039 for the second.

Going from RRIRMRPPRLPRPRPRPRTRPRP to RRIRQRPPRLPRPRPRPQADPRP, the “shrunken log2 fold change” value falls from 1.09 to 0.0769.

RRIRIRPPRLPRPRPRPRYAPRP and RRIRYRPPRLPRPRPRPAEWPRP are within 0.2 log units of each other in “shrunken log2 fold change” value: -0.14 for the first, 0.00902 for the second.

First: RRIRKRPPRLPRPRPRPPLFPRP
Second: RRIRVRPPRLPRPRPRPDKIPRP
The “shrunken log2 fold change” value of the first is higher: 0.321 for the first, -0.19 for the second.

Compared with RRIRHRPPRLPRPRPRPHKIPRP, RRIRKRPPRLPRPRPRPPKLPRP is higher in “shrunken log2 fold change” value: -0.215 for the first, 0.658 for the second.

Going from RRIRSRPPRLPRPRPRPCDNPRP to RRIRPRPPRLPRPRPRPVAPPRP, the “shrunken log2 fold change” value rises from -0.165 to 0.411.

RRIRLRPPRLPRPRPRPVFHPRP and RRIRERPPRLPRPRPRPYRYPRP are within 0.2 log units of each other in “shrunken log2 fold change” value: -0.143 for the first, -0.107 for the second.

First: RRIRMRPPRLPRPRPRPAPIPRP
Second: RRIRFRPPRLPRPRPRPWFMPRP
The “shrunken log2 fold change” value of the first is higher: 0.618 for the first, -0.609 for the second.

RRIRTRPPRLPRPRPRPVTQPRP was tested, and the “shrunken log2 fold change” value was 0.0354.
